# Results reported in patent publication US20250188434A1 (VERRA THERAPEUTICS, published 2025).
# Where a chain is given by its changes, count along the chain named.
# T1: ADAM9 (human or mouse ADAM9, enzyme of the in vitro inhibition assay) (human or mouse, UniProt Q13443 206-697, limits assumed)
# T1 sequence (looked up): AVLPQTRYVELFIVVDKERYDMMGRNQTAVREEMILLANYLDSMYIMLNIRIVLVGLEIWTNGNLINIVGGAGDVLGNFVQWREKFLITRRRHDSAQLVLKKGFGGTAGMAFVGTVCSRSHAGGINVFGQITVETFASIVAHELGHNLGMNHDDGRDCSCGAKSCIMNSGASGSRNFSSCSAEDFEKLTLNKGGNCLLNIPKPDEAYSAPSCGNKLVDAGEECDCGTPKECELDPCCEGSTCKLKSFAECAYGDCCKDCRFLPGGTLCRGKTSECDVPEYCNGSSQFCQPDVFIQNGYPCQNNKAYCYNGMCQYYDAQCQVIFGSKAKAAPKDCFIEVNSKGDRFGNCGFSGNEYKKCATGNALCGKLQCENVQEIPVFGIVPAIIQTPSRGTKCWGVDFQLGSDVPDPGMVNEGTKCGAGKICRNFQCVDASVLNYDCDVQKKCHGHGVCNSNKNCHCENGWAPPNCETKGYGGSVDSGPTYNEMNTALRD
# T2: Human Meprin beta (human, UniProt Q16820 62-652, limits assumed)
# T2 sequence (looked up): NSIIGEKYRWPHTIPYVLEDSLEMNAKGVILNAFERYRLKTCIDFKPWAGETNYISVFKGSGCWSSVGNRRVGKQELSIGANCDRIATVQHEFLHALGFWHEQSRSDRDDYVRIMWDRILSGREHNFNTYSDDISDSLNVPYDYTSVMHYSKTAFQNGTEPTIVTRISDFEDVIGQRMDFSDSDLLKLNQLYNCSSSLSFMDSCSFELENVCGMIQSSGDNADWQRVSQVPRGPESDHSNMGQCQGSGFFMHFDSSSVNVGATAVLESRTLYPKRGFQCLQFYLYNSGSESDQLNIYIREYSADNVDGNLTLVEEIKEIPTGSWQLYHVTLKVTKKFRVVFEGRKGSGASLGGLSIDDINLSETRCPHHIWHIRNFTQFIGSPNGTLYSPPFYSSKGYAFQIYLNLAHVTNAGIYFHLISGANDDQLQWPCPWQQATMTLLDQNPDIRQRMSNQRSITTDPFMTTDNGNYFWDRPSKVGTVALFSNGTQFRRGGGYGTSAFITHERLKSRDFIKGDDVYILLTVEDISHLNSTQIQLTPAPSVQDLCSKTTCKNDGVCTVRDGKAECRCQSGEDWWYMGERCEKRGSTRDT
# B1: wild type human ADAM9 prodomain peptide (SEQ ID NO: 2) (peptide)
# chain: ARPGFQQTSHLSSYEIITPWRLTRERREAPRPYSKQVSYVIQAEGKEHIIHLERNKDLLPEDFVVYTYNKEGTLITDHPNIQNHCHYRGYVEGVHNSSIALSDCFGLRGLLHLENASYGIEPLQNSSHFEHIIYRMDDVYKEPLKCGVSNKDIEKETAKDEEEEPPSMTQLLRR
# B2: pegylated SEQ ID NO: 20 (peptide)
# chain: ARPGFQQTSHLSSYEIITPWRLTREAREAPRPYSKQVSYVIQAEGKEHIIHLERNKDLLPEDFVVYTYNKEGTLITDHPNIQNHSHYRGYVEGVHNSSIALSDSFGLRGLLHLENASYGIEPLQNSSHFEHIIYRMDDVYKEPLKSGVSNKDIEKETAKDEEEEPPSMTQLLRRGSGSC
# modifications: 20 kDa maleimide PEG on the cysteine of the pentapeptide added to the C-terminus
# B3: pegylated SEQ ID NO: 23 (peptide)
# chain: B2 chain with A26R, R27A
# modifications: pegylated at the C-terminus, on the cysteine of the added C-terminal pentapeptide (PEG size not stated for this construct)
# B4: modified ADAM9 prodomain peptide SEQ ID NO: 17 (peptide)
# chain: QTSHLSSYEIITPWRLTRERAEAPRPYSKQVSYVIQAEGKEHIIHLERNKDLLPEDFVVYTYNKEGTLITDHPNIQNHSHYRGYVEGVHNSSIALSDSFGLRGLLHLENASYGIEPLQNSSHFEHIIYRMDDVYKEPLKSGVSNKDIEKETAKDEEEEPPSMTQLLRR
# B5: pegylated SEQ ID NO: 22 (peptide)
# chain: GSCGSARPGFQQTSHLSSYEIITPWRLTRERAEAPRPYSKQVSYVIQAEGKEHIIHLERNKDLLPEDFVVYTYNKEGTLITDHPNIQNHSHYRGYVEGVHNSSIALSDSFGLRGLLHLENASYGIEPLQNSSHFEHIIYRMDDVYKEPLKSGVSNKDIEKETAKDEEEEPPSMTQLLRR
# modifications: pegylated at the N-terminus, on the cysteine of the added N-terminal pentapeptide (PEG size not stated for this construct)
# B6: modified ADAM9 prodomain peptide SEQ ID NO: 14 (peptide)
# chain: B1 chain with R26A, D62A, C85S, C104S, C146S
# B7: pegylated SEQ ID NO: 21 (peptide)
# chain: B1 chain with R27A, C85S, C104S
# modifications: pegylated at cysteine 146 (PEG size not stated for this construct)
# B8: modified ADAM9 prodomain peptide SEQ ID NO: 13 (peptide)
# chain: B1 chain with C85S, C104S, C146S
# B9: modified ADAM9 prodomain peptide SEQ ID NO: 18 (peptide)
# chain: B1 chain with R27A, C85S, C104S, D138S, C146S
# B10: modified ADAM9 prodomain peptide SEQ ID NO: 12 (peptide)
# chain: B1 chain with R27A, C85S, C104S, C146S
# B11: Chemically modified SEQ ID NO: 2 (wild type ADAM9 prodomain labelled with ALEXA FLUOR 647 maleimide ester) (peptide)
# chain: B1 chain
# modifications: ALEXA FLUOR 647 brand maleimide ester on its three cysteines (85, 104 and 146 of SEQ ID NO: 2)
# B12: modified ADAM9 prodomain peptide SEQ ID NO: 11 (peptide)
# chain: B1 chain with R24A, C85S, C104S, C146S
# B13: modified ADAM9 prodomain peptide SEQ ID NO: 16 (peptide)
# chain: B1 chain with R27S, C85S, C104S, C146S
# B14: modified ADAM9 prodomain peptide SEQ ID NO: 10 (peptide)
# chain: B1 chain with R26A, C85S, C104S, C146S
# B15: modified ADAM9 prodomain peptide SEQ ID NO: 19 (peptide)
# chain: B1 chain with R27A, C85S, C104S, C146S, E161N, E163N
# B16: 25-3 (SEQ ID NO: 23), as labelled in Table 5 (peptide)
# chain: B2 chain with A26R, R27A
# B17: 25-2 (SEQ ID NO: 22), as labelled in Table 5 (peptide)
# chain: B5 chain
# B18: 25-1 (SEQ ID NO: 21), as labelled in Table 5 (peptide)
# chain: B1 chain with R27A, C85S, C104S
# Molecular target: T1, ADAM9 (human or mouse ADAM9, enzyme of …)
# Assay: cell-based or functional assay
row,Binder,"IC50, inhibition of ADAM9 activity; wild type prodomain assayed 1 week after dialysis, when dimer formation had occurred"
1,B1,120 nM

# Molecular target: T1, ADAM9 (human or mouse ADAM9, enzyme of …)
# Assay: cell-based or functional assay
# Remark: another data set of the same source
Binder,"IC50, inhibition of ADAM9 activity on FRET substrate PEPDAB064; prodomain from inclusion bodies","IC50, inhibition of ADAM9 activity on FRET substrate PEPDAB064; prodomain from soluble fraction","IC50, inhibition of ADAM9 activity on FRET substrate PEPDAB064; prodomain refolded from inclusion bodies (aggregating)"
B2,16 nM,–,–
B3,39.9 nM,–,–
B4,185 nM,–,–
B5,60 nM,–,–
B1,20 nM,–,–
B6,136 nM,–,–
B7,40.5 nM,–,–
B8,46 nM,–,–
B9,181 nM,–,–
B10,41 nM,39 nM,–
B11,125 nM,–,–
B12,> 200 nM,13.8 nM,–
B13,29 nM,–,–
B14,–,49 nM,> 200 nM
B15,33 nM,–,–

# Molecular target: T2, Human Meprin beta
# Assay: cell-based or functional assay
row,Binder,"IC50, inhibition of activated Meprin beta on fluorescent substrate PEPDAB022"
1,B16,5700 nM
2,B17,3800 nM
3,B1,200 nM
4,B10,7400 nM
5,B18,2800 nM
